Literature values as cited in article PMC4188015.

What was measured:
[1] = molecular target: insulin receptor isoform A (Homo sapiens) (UniProt P06213)
[2] = molecular target: insulin receptor site 2 (Homo sapiens) (UniProt P06213)
[3] = molecular target: insulin receptor site 1 (Homo sapiens) (UniProt P06213)
[4] = molecular target: Human insulin (Homo sapiens) (UniProt P01308); assay: ITC

In the case of IGF-II (from UniProt P01344), the Kd [1] is given as 4 nM.
In the case of insulin (from UniProt P01308), the Kd [2] is listed as 400 nM and the Kd [3] is listed as 6.4 nM.
For Human insulin (from UniProt P01308), the Kd [4] is given as 8810 nM.
